How the values were obtained:
HeLa Kyoto [1] = experiment: melting temperature (median over replicates), in situ; higher = more thermally stable
HeLa Kyoto [2] = experiment: solubility change mitosis vs G1/S (difference of NP-40 vs SDS log2 ratios) (log2 ratio difference); higher = more soluble in mitosis
HeLa Kyoto [3] = experiment: solubility in G1/S (NP-40 vs SDS abundance) (log2 ratio); higher = more soluble; conditions: cell cycle stage: G1/S
HeLa Kyoto [4] = experiment: thermal stability score vs G1/S (z-score of summed log2 fold changes over temperatures); higher = more thermally stable than in G1/S
[5] = cell cycle stage: early G1 (4.5 h after nocodazole release)
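Wherever melting temperature (median over replicates), in situ is given: HeLa Kyoto cells synchronized by double thymidine or nocodazole block, proteins quantified by TMT10plex mass spectrometry, three independent biological replicates.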
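Wherever solubility change mitosis vs G1/S (difference of NP-40 vs SDS log2 ratios) is given: synchronized HeLa Kyoto cells (double thymidine block for G1/S, nocodazole release for mitosis), protein amounts in NP-40 versus SDS lysates quantified by mass spectrometry, three biological replicates.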
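Wherever solubility in G1/S (NP-40 vs SDS abundance) is given: HeLa Kyoto cells arrested at G1/S by double thymidine block, proteins quantified by TMT10plex mass spectrometry in mild NP-40 versus SDS extracts, three biological replicates.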
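Wherever thermal stability score vs G1/S (z-score of summed log2 fold changes over temperatures) is given: synchronized HeLa Kyoto cells, proteins quantified by TMT10plex mass spectrometry, three biological replicates, mitosis taken 0.5 h after nocodazole release, G1/S directly after double thymidine block.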

Row | Sequence | melting temperature (HeLa Kyoto [1]; cell cycle stage: G1/S) | melting temperature (HeLa Kyoto [1]; cell cycle stage: mitosis) | solubility change mitosis (log2) (HeLa Kyoto [2]) | solubility in G1/S (log2) (HeLa Kyoto [3]) | thermal stability score (HeLa Kyoto [4]; [5]) | thermal stability score (HeLa Kyoto [4]; cell cycle stage: mitosis)
1 | MGKRQHQKDKMYITCAEYTHFYGGKKPDLPQTNFRRLPFDHCSLSLQPFVYPVCTPDGIVFDLLNIVPWLKKYGTNPSNGEKLDGRSLIKLNFSKNSEGKYHCPVLFTVFTNNTHIVAVRTTGNVYAYEAVEQLNIKAKNFRDLLTDEPFSRQDIITLQDPTNLDKFNVSNFYHVKNNMKIIDPDEEKAKQDPSYYLKNTNAETRETLQELYKEFKGDEILAATMKAPEKKKVDKLNAAHYSTGKVSASFTSTAMVPETTHEAAAIDEDVLRYQFVKKKGYVRLHTNKGDLNLELHCDLTPKTCENFIRLCKKHYYDGTIFHRSIRNFVIQGGDPTGTGTGGESYWGKPFKDEFRPNLSHTGRGILSMANSGPNSNRSQFFITFRSCAYLDKKHTIFGRVVGGFDVLTAMENVESDPKTDRPKEEIRIDATTVFVDPYEEADAQIAQERKTQLKVAPETKVKSSQPQAGSQGPQTFRQGVGKYINPAATKRAAEEEPSTSATVPMSKKKPSRGFGDFSSW [PPIL2] | 47.5 °C | 48.4 °C | -0.019 | 0.00272 | 0.984 | 1.06
2 | MGKSESQMDITDINTPKPKKKQRWTPLEISLSVLVLLLTIIAVTMIALYATYDDGICKSSDCIKSAARLIQNMDATTEPCTDFFKYACGGWLKRNVIPETSSRYGNFDILRDELEVVLKDVLQEPKTEDIVAVQKAKALYRSCINESAIDSRGGEPLLKLLPDIYGWPVATENWEQKYGASWTAEKAIAQLNSKYGKKVLINLFVGTDDKNSVNHVIHIDQPRLGLPSRDYYECTGIYKEACTAYVDFMISVARLIRQEERLPIDENQLALEMNKVMELEKEIANATAKPEDRNDPMLLYNKMTLAQIQNNFSLEINGKPFSWLNFTNEIMSTVNISITNEEDVVVYAPEYLTKLKPILTKYSARDLQNLMSWRFIMDLVSSLSRTYKESRNAFRKALYGTTSETATWRRCANYVNGNMENAVGRLYVEAAFAGESKHVVEDLIAQIREVFIQTLDDLTWMDAETKKRAEEKALAIKERIGYPDDIVSNDNKLNNEYLELNYKEDEYFENIIQNLKFSQSKQLKKLREKVDKDEWISGAAVVNAFYSSGRNQIVFPAGILQPPFFSAQQSNSLNYGGIGMVIGHEITHGFDDNGRNFNKDGDLVDWWTQQSASNFKEQSQCMVYQYGNFSWDLAGGQHLNGINTLGENIADNGGLGQAYRAYQNYIKKNGEEKLLPGLDLNHKQLFFLNFAQVWCGTYRPEYAVNSIKTDVHSPGNFRIIGTLQNSAEFSEAFHCRKNSYMNPEKKCRVW [MME] | 53 °C | 55.9 °C | -0.0403 | -0.0691 | -0.835 | -0.832
3 | MGKVNVAKLRYMSRDDFRVLTAVEMGMKNHEIVPGSLIASIASLKHGGCNKVLRELVKHKLIAWERTKTVQGYRLTNAGYDYLALKTLSSRQVVESVGNQMGVGKESDIYIVANEEGQQFALKLHRLGRTSFRNLKNKRDYHKHRHNVSWLYLSRLSAMKEFAYMKALYERKFPVPKPIDYNRHAVVMELINGYPLCQIHHVEDPASVYDEAMELIVKLANHGLIHGDFNEFNLILDESDHITMIDFPQMVSTSHPNAEWYFDRDVKCIKDFFMKRFSYESELFPTFKDIRREDTLDVEVSASGYTKEMQADDELLHPLGPDDKNIETKEGSEFSFSDGEVAEKAEVYGSENESERNCLEESEGCYCRSSGDPEQIKEDSLSEESADARSFEMTEFNQALEEIKGQVVENNSVTEFSEEKNRTENYNRQDGQRVQGGVPAGSDEYEDECPHLIALSSLNREFRPFRDEENVGAMNQYRTRTLSITSSGSAVSCSTIPPELVKQKVKRQLTKQQKSAVRRRLQKGEANIFTKQRRENMQNIKSSLEAASFWGE [RIOK2] | 52.5 °C | 52 °C | -0.21 | -0.263 | -0.571 | -0.171
4 | MGLADASGPRDTQALLSATQAMDLRRRDYHMERPLLNQEHLEELGRWGSAPRTHQWRTWLQCSRARAYALLLQHLPVLVWLPRYPVRDWLLGDLLSGLSVAIMQLPQGLAYALLAGLPPVFGLYSSFYPVFIYFLFGTSRHISVGTFAVMSVMVGSVTESLAPQALNDSMINETARDAARVQVASTLSVLVGLFQVGLGLIHFGFVVTYLSEPLVRGYTTAAAVQVFVSQLKYVFGLHLSSHSGPLSLIYTVLEVCWKLPQSKVGTVVTAAVAGVVLVVVKLLNDKLQQQLPMPIPGELLTLIGATGISYGMGLKHRFEVDVVGNIPAGLVPPVAPNTQLFSKLVGSAFTIAVVGFAIAISLGKIFALRHGYRVDSNQELVALGLSNLIGGIFQCFPVSCSMSRSLVQESTGGNSQVAGAISSLFILLIIVKLGELFHDLPKAVLAAIIIVNLKGMLRQLSDMRSLWKANRADLLIWLVTFTATILLNLDLGLVVAVIFSLLLVVVRTQMPHYSVLGQVPDTDIYRDVAEYSEAKEVRGVKVFRSSATVYFANAEFYSDALKQRCGVDVDFLISQKKKLLKKQEQLKLKQLQKEEKLRKQAASPKGASVSINVNTSLEDMRSNNVEDCKMMQVSSGDKMEDATANGQEDSKAPDGSTLKALGLPQPDFHSLILDLGALSFVDTVCLKSLKNIFHDFREIEVEVYMAACHSPVVSQLEAGHFFDASITKKHLFASVHDAVTFALQHPRPVPDSPVSVTRL [SLC26A6] | 56.6 °C | 56 °C | -0.0476 | -0.00184 | -1.84 | -2.56
5 | MGLLAFLKTQFVLHLLVGFVFVVSGLVINFVQLCTLALWPVSKQLYRRLNCRLAYSLWSQLVMLLEWWSCTECTLFTDQATVERFGKEHAVIILNHNFEIDFLCGWTMCERFGVLGSSKVLAKKELLYVPLIGWTWYFLEIVFCKRKWEEDRDTVVEGLRRLSDYPEYMWFLLYCEGTRFTETKHRVSMEVAAAKGLPVLKYHLLPRTKGFTTAVKCLRGTVAAVYDVTLNFRGNKNPSLLGILYGKKYEADMCVRRFPLEDIPLDEKEAAQWLHKLYQEKDALQEIYNQKGMFPGEQFKPARRPWTLLNFLSWATILLSPLFSFVLGVFASGSPLLILTFLGFVGAASFGVRRLIGVTEIEKGSSYGNQEFKKKE [AGPAT3] | 52.2 °C | 52.4 °C | -0.0117 | -0.0836 | -0.691 | -1.45
6 | MGLLLMILASAVLGSFLTLLAQFFLLYRRQPEPPADEAARAGEGFRYIKPVPGLLLREYLYGGGRDEEPSGAAPEGGATPTAAPETPAPPTRETCYFLNATILFLFRELRDTALTRRWVTKKIKVEFEELLQTKTAGRLLEGLSLRDVFLGETVPFIKTIRLVRPVVPSATGEPDGPEGEALPAACPEELAFEAEVEYNGGFHLAIDVDLVFGKSAYLFVKLSRVVGRLRLVFTRVPFTHWFFSFVEDPLIDFEVRSQFEGRPMPQLTSIIVNQLKKIIKRKHTLPNYKIRFKPFFPYQTLQGFEEDEEHIHIQQWALTEGRLKVTLLECSRLLIFGSYDREANVHCTLELSSSVWEEKQRSSIKTVELIKGNLQSVGLTLRLVQSTDGYAGHVIIETVAPNSPAAIADLQRGDRLIAIGGVKITSTLQVLKLIKQAGDRVLVYYERPVGQSNQGAVLQDNFGQLEENFLSSSCQSGYEEEAAGLTVDTESRELDSEFEDLASDVRAQNEFKDEAQSLSHSPKRVPTTLSIKPLGAISPVLNRKLAVGSHPLPPKIQSKDGNKPPPLKTSEITDPAQVSKPTQGSAFKPPVPPRPQAKVPLPSADAPNQAEPDVLVEKPEKVVPPPLVDKSAEKQAKNVDAIDDAAAPKQFLAKQEVAKDVTSETSCPTKDSSDDRQTWESSEILYRNKLGKWTRTRASCLFDIEACHRYLNIALWCRDPFKLGGLICLGHVSLKLEDVALGCLATSNTEYLSKLRLEAPSPKAIVTRTALRNLSMQKGFNDKFCYGDITIHFKYLKEGESDHHVVTNVEKEKEPHLVEEVSVLPKEEQFVGQMGLTENKHSFQDTQFQNPTWCDYCKKKVWTKAASQCMFCAYVCHKKCQEKCLAETSVCGATDRRIDRTLKNLRLEGQETLLGLPPRVDAEASKSVNKTTGLTRHIINTSSRLLNLRQVSKTRLSEPGTDLVEPSPKHTPNTSDNEGSDTEVCGPNSPSKRGNSTGIKLVRKEGGLDDSVFIAVKEIGRDLYRGLPTEERIQKLEFMLDKLQNEIDQELEHNNSLVREEKETTDTRKKSLLSAALAKSGERLQALTLLMIHYRAGIEDIETLESLSLDQHSKKISKYTDDTEEDLDNEISQLIDSQPFSSISDDLFGPSESV [PDZD8] | 51.8 °C | 52.2 °C | -0.0986 | -0.312 | -1.18 | -0.643
7 | MGLLSDPVRRRALARLVLRLNAPLCVLSYVAGIAWFLALVFPPLTQRTYMSENAMGSTMVEEQFAGGDRARAFARDFAAHRKKSGALPVAWLERTMRSVGLEVYTQSFSRKLPFPDETHERYMVSGTNVYGILRAPRAASTESLVLTVPCGSDSTNSQAVGLLLALAAHFRGQIYWAKDIVFLVTEHDLLGTEAWLEAYHDVNVTGMQSSPLQGRAGAIQAAVALELSSDVVTSLDVAVEGLNGQLPNLDLLNLFQTFCQKGGLLCTLQGKLQPEDWTSLDGPLQGLQTLLLMVLRQASGRPHGSHGLFLRYRVEALTLRGINSFRQYKYDLVAVGKALEGMFRKLNHLLERLHQSFFLYLLPGLSRFVSIGLYMPAVGFLLLVLGLKALELWMQLHEAGMGLEEPGGAPGPSVPLPPSQGVGLASLVAPLLISQAMGLALYVLPVLGQHVATQHFPVAEAEAVVLTLLAIYAAGLALPHNTHRVVSTQAPDRGWMALKLVALIYLALQLGCIALTNFSLGFLLATTMVPTAALAKPHGPRTLYAALLVLTSPAATLLGSLFLWRELQEAPLSLAEGWQLFLAALAQGVLEHHTYGALLFPLLSLGLYPCWLLFWNVLFWK [GPAA1] | 53.7 °C | 53.4 °C | -0.232 | -0.07 | 0.0135 | 0.0397
8 | MGLLSQGSPLSWEETKRHADHVRRHGILQFLHIYHAVKDRHKDVLKWGDEVEYMLVSFDHENKKVRLVLSGEKVLETLQEKGERTNPNHPTLWRPEYGSYMIEGTPGQPYGGTMSEFNTVEANMRKRRKEATSILEENQALCTITSFPRLGCPGFTLPEVKPNPVEGGASKSLFFPDEAINKHPRFSTLTRNIRHRRGEKVVINVPIFKDKNTPSPFIETFTEDDEASRASKPDHIYMDAMGFGMGNCCLQVTFQACSISEARYLYDQLATICPIVMALSAASPFYRGYVSDIDCRWGVISASVDDRTREERGLEPLKNNNYRISKSRYDSIDSYLSKCGEKYNDIDLTIDKEIYEQLLQEGIDHLLAQHVAHLFIRDPLTLFEEKIHLDDANESDHFENIQSTNWQTMRFKPPPPNSDIGWRVEFRPMEVQLTDFENSAYVVFVVLLTRVILSYKLDFLIPLSKVDENMKVAQKRDAVLQGMFYFRKDICKGGNAVVDGCGKAQNSTELAAEEYTLMSIDTIINGKEGVFPGLIPILNSYLENMEVDVDTRCSILNYLKLIKKRASGELMTVARWMREFIANHPDYKQDSVITDEMNYSLILKCNQIANELCECPELLGSAFRKVKYSGSKTDSSN [GCLC] | 52 °C | 51.8 °C | -0.172 | 0.0288 | -0.677 | -1.1
9 | MGLQLRALLGAFGRWTLRLGPRPSCSPRMAGNAEPPPAGAACPQDRRSCSGRAGGDRVWEDGEHPAKKLKSGGDEERREKPPKRKIVLLMAYSGKGYHGMQRNVGSSQFKTIEDDLVSALVRSGCIPENHGEDMRKMSFQRCARTDKGVSAAGQVVSLKVWLIDDILEKINSHLPSHIRILGLKRVTGGFNSKNRCDARTYCYLLPTFAFAHKDRDVQDETYRLSAETLQQVNRLLACYKGTHNFHNFTSQKGPQDPSACRYILEMYCEEPFVREGLEFAVIRVKGQSFMMHQIRKMVGLVVAIVKGYAPESVLERSWGTEKVDVPKAPGLGLVLERVHFEKYNQRFGNDGLHEPLDWAQEEGKVAAFKEEHIYPTIIGTERDERSMAQWLSTLPIHNFSATALTAGGTGAKVPSPLEGSEGDGDTD [PUS1] | 46.8 °C | 48.7 °C | -0.119 | 0.281 | 1.9 | 6.23

Reference: the supplement of paper PMC5998384
